In paper PMC314469, “Protein Interaction Networks by Proteome Peptide Scanning” (PLoS Biology, 2004):

T1: amphyphisin SH3 (AMPH_HUMAN), P49418
T1 chain: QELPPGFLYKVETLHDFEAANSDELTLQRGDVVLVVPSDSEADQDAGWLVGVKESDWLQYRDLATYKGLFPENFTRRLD


Assays:
[1] = biological target: T1, amphyphisin SH3 (AMPH_HUMAN), P49418; test: SPOT array
[2] = biological target: endophilin SH3 (SH3G2_HUMAN), Q99962; test: SPOT array

Binder	normalised SPOT signal, Boehringer light units (BLU); mean over the file's lines of this peptide [1]	normalised SPOT signal, Boehringer light units (BLU); mean over the file's lines of this peptide [2]
DGEMFMRPGKLFDY [P08574 161-174]	117	72.5
DGRTPLRPSRNTKQ [Q9H0H1 56-69]	14900	287
DMQSFRRPSAASID [Q96QH2 513-526]	16.7	56
DFYEPRRPEDDDPT [Q96IE0 67-80]	0	50.1
DEVWFKRPDGSKSK [Q9BRI4 246-259]	30	60.8
DLSGLKRPSSSAST [Q9Y338 401-414]	31.5	27.9
DEGSLRRPGRLTST [Q96ML9 142-155]	81.1	28.2
DGRLLYRPNKAGET [Q9ULH0 399-412]	20	44.6
DKKSPTRPKRQAKP [Q9P2W5 3-16]	3780	500
AAESPGRPPPTAAE [Q9UPS7 514-528]	22	51.1
ADAEPGRPKKRAHS [Q9P2P0 592-605]	120	48.3
DGSFLARPSKSNPG [Q06124 26-39]	96.2	36.7
AEEQLRRPRIVHVG [Q9UBR1 62-75]	24.5	35.1
DNIPLSRPKRNLSR [Q9Y4P9 18-31]	1930	138
DEARLRRPPRPSSD [Q9Y2H9 828-841]	2750	172
DKSPPPRPPTSPYP [O14607 862-876]	83.4	4530
DIKPLKRPRDEDDA [P11387 132-145]	37.9	0
DMAIPSKPPAASPE [Q8TEH3 531-545]	40.1	80
DKLSPDRPIRDTRH [Q9ULT9 130-143]	3530	794
DKADLIRPKRKYEK [Q9H2F5 327-340]	417	64.3
DLPGPRRPAAAAAM [Q9NQ62 12-25]	33.3	66
DNGGFKRPLAPSGR [Q9Y5U2 118-131]	31.7	98.6
DELEPRRPRYRVPD [Q14697 104-117]	35.4	26.4
ADVDPQRPPRPEVK [Q9ULR6 191-204]	2760	125
DFPKPKKPPPPAKA [Q9Y5K6 333-347]	33	8340

Results, then the binder that gave them:

normalised SPOT signal, Boehringer light units (BLU); mean over the file's lines of this peptide [1]	normalised SPOT signal, Boehringer light units (BLU); mean over the file's lines of this peptide [2]	Binder
18.7	41.8	DGDPLKRPLLGIVQ [O75060 326-339]
37.2	41.3	DIPEPRRPVVEQAL [O15031 1306-1319]
200	113	DGVSLSRPGRTADS [P39191 408-421]
75	85.2	DIPGPTRPPGQVLS [AAH30713 119-133]
69.5	94.4	DESRIRRPMNAFMV [P35713 81-94]
20.5	83	DLLSPRRPPDDPWA [BAC03422 263-277]
58.3	240	DKNIPMKPPTPLLN [AAM33634 99-113]
23.9	28	DESSPRRPDYLKGL [Q99698 2220-2233]
3590	126	DEPEPPRPRRGSLR [O43157 1891-1904]
58.2	4090	DKSPPPRPPSSPYP [O15550 915-929]
3740	85	DGKDPRRPKRPRTI [O60663 189-202]
35.1	67.7	DKIPFKRPSTYGVP [O95444 394-407]
134	70.2	AEEPLHRPKKELSA [P42858 83-96]
424	130	DGKFLLRPRKEQGT [P43403 184-197]
64.8	2640	DLHPPPRPPSPTEI [O43154 1259-1273]
4130	658	DKKSPTRPKRHAKP [Q99710 3-16]
23100	959	DEEKPKRPTRRRRK [O94885 688-701]
